Experimental data: the nanobody polyreactivity screen of Harvey et al. (2022)

test: yeast display, Sf9 membrane polyspecificity reagent, FACS + sequencing; frameworks hold sequencing errors
Outline: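 Galactose-induced (36–48 hours) yeast carrying a synthetic nanobody display library were exposed to 10% biotinylated, detergent-solubilized Sf9 membrane reagent at 4 °C for 1 hour. FACS followed streptavidin microbead enrichment, using low and high (top ~1%) gates for expression (anti-HA) and reagent binding (streptavidin). Colony PCR, MiSeq 2 × 250 sequencing and CDR-length filtering followed. Labels for polyreactivity reflect the gate of origin.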

| Sequence | polyreactivity (PSR sort gate) |
| --- | --- |
| HVQLVESGGGLVQAGGSLRLSCAASGSIFGNYVMGWYRQAPGKERELVAAISWSGGTNYADSVKGRFTISRDNAKNTVYLQMKSLKPEDTAVYYCAALSVWSYYTYYYWGQGTQVTVSS | high polyreactivity |
| HVQLVESGGGLVQAGGSLRLSCAASGSIFNSNGMGWYRQATGKERELVAAITGGGSTNYADSVKGRFTISRDNAKNTVYLQMNSLKPEDTAVYYCAARPLRTDWAYYYWGQGTQVTVSS | low polyreactivity |
| HVQLVESGGGLVQAGGSLRLSCAASGSIFPRYSMGRYRQAPGKEMELVAAITSGGSTYYADSVKGRFTISRDNAKNTVYLQMNSLKPEDTAVYYCAATIYRPKGGTYGWYGYDYWGQGTQVTVSS | high polyreactivity |
| HVQLVESGGGLVQAGGSLRLSCAASGSIFSGNAMGWYRQAPGKERELVAAISYSDGSTYYADSVKGRFTISRDNAKNTVYLQMNSLKPEDTAVYYCAADGYPYTYDYWGQGTQVTVST | low polyreactivity |
| HVQLVESGGGLVQAGGSLRLSCAASGSIYGGNTMGWYRQAPGKERELVAAISRSGGSTYYADSVKGRFTISRDNAKNTVYLQMNSLKREDTAVYYCKRKQAGHGQGYDYWGQGTQVTVSS | high polyreactivity |
| HVQLVESGGGLVQAGGSLRLSCAASGSTFAAYAMGWYRQAPGKERELVAAITKRGGTTYYADSVKGRVTISRDHAKNSVYLQMNSLKPEDTAVYYCAKTRYYSALLHYDYDTWGQGTQVTVST | high polyreactivity |
| HVQLVESGGGLVQAGGSLRLSCAASGSTFDVYAMGWYRQAPGKERELVAAISRSGGSTYYADSVKGRFTISRDNAKNTVYLQMNSLKPEDTAVYYCNARLARWGSYEYNYWGQGTQVTVSS | low polyreactivity |
| HVQLVESGGGLVQAGGSLRLSCAASGSTFKRNTMGWYRQAPGKERELVAAISRSGGSTYYADSVKGRFTISRDNAKNTVYLQMNSLKPEDTAVYYCNAYVSSYVGSRSYGLSPYDYWGQGTQVTVSS | high polyreactivity |
| HVQLVESGGGLVQAGGSLRLSCAASGSTFKRYAMGGDRQAPGKEREFVAGISWRGGSTYYADSVKGRFTISRDNAKNTVYLQMNSLKPEDTAVYFCAARSFSNIGYHGYGYWGQGTQVTVSS | high polyreactivity |
| HVQLVESGGGLVQAGGSLRLSCAASVTFSFYAMGWYTQSPGKERELVAAISSIGDSTYYADSVKGRFTISRDNAKNTVYLQMNSLKPEETAVYYYGVIAVDAYDYYTYDYWRQGTQVTVSS | high polyreactivity |
| HVQLVESGGGLVQAGGSLRLTCAASGFSYGYYAMGWYRQAPGKEWELVATISSGDNTYYADSVKGRFTSSRDNAKNTVYLQMNSLKPEDTAVYYCAARYPHYFVRGGYWGQGTQVTVSS | high polyreactivity |
| HVQLVESGGGLVQAGGSLRLTCAASGLTFSSYAMGWYRQAPGKERELVADITYRGGSTYYADSVKGRFTISRDNEKNTVYLQMNSLKPEDTAVYYCAARKKYRFDYWGQGTQVTVSS | high polyreactivity |
| HVQLVESGGGLVQARGSLRLSCAASGRTSWYYAMGWYRQAPGKEKELVAAITASGGSTYADSVKGRFTISRDNAKNTVYLEMNSLKPEDTAVYYCAAERPYSRVGYYYWGQGTQVTVSS | high polyreactivity |
| HVQLVESGVGLVQAAGSLRLSCAASGLIFRWYAMGWYRQAPVKERELFAAISRGGSTNYADSVKGRFTISRDNAKNTVYLQMNSLKPEDTAVYYCATVYSVRYGGRYYYAFGLYDYWGQGTQVTVSS | high polyreactivity |
| HVQLVESVGGLVQAGGSLRLRCAASGLTFRCNGMGWYRQEPGKETELVAAISSSGGSTYYADSVKGRFTISRDNAKNTVYLQLNSLKPEDTGVYFCARLVFYSQGVREMDYWGQGTQVTGSS | high polyreactivity |
| IIQAGGSLRLSCAASGRTFSGYAMGWYRPAPGKERELIADITSGGSTYYADSVKGRFTISRDNAKNTVYLQMNSLKPEDTAVYYCNKVYPVVLYEPQYDYWGQGTQVTVSS | low polyreactivity |
| KDQLVESGGGLVQAGGSLRLSGAASGRTFASNDMVWYRQAPGKERELVADINNGARTYYADSVKGRFTISRDNAKNTVYLQMNSLKPEDSAVYYCNARPWYWWECRYDYWGQGTQVTVSS | high polyreactivity |
